The record followed here is patent US20260327578A1, “TRANSGLUTAMINASES AND USES THEREOF” (CURIE CO. INC., priority 2023, published 2026).

One data set has as its system collagen. Nature of the data set: Collagen-modifying activity with FITC-gelatin or FITC-cadaverine. Conditions: 16 hours, pH 7.4. The class given is biochemical. On the procedure:
Substrate specificity for collagen of Tgase variant A3 (SEQ ID NO: 4) was tested by allowing the variant to react with either fluorescein-labeled gelatin (FITC-Gelatin, to test protein-protein cross-linking) or fluorescein-labeled cadaverine (FITC-cadaverine, to test protein-small molecule cross-linking) with a collagen layer deposited on the bottom of a 96-well microtiter plate. Tgase variant A3 (SEQ ID NO: 4) and wild-type Tgase were diluted to 4-800 ppm in 50 mM phosphate buffer, pH 7.4, supplemented with 100 mM NaCl in 96-well collagen coated microtiter plates. Either FITC-gelatin or FITC-cadaverine was added to 1 g/L (final volume 100 μL) and the plates were sealed and incubated at either 37° C. or 50° C. for 16 hours. The reaction supernatants were carefully removed and then 200 μL 50 mM [COMPOUND LEFT OUT] mM NaCl, pH 7.4 buffer was added gently against the side of each well then carefully removed. This wash step was repeated. The plate-bound material was extracted by vigorously pipetting 100 μL dimethylsulfoxide into each well, then the extract was transferred into a black bottom 96-well plate. The fluorescence of the samples was measured at an excitation wavelength of 487 nm and an emission wavelength of 528 nm. The fluorescence signal is assumed to be proportionate to the concentration of fluorescent product extracted from the surface of the plate. For both FITC-gelatin and FITC-cadaverine, the fluorescence response per concentration enzyme was higher for wells treated with Tgase variant A3 (SEQ ID NO: 4) than for wells treated with wild-type Tgase (Table 11).

The test system of the next data set is C. albicans. The experiment in a line: Preservative efficacy in body lotion against C. albicans. The class given is cell-based. The note with it: 0.005% in combinations, phenoxyethanol 0.7% alone, 0.3% combined, caprylyl glycol 0.7% alone, 0.35% combined, sodium benzoate 0.5% + EDTA 0.5%, 2% 2:1 propanediol:hexanediol, 0.5% CHA solution. On the procedure: A vessel was filled with deionized water, placed under an overhead stirrer set to moderate mixing, and heated to 75-80° C. Glycerin was added to 2% and mixed until dissolved, followed by xanthan gum to 0.2%. At 75-80° C., cetearyl glucoside and cetearyl alcohol were added to 4% and 3%. Once both had melted fully, milk thistle seed oil was added and the batch was homogenized with a Silverson homogenizer with the standard emulsion screen until the batch had turned milky white. The batch was removed from heat and returned to propellor mixing with decreased speed to allow the emulsion to set up. At 40° C., pH was adjusted to pH 5.5-6.0 using citric acid or sodium hydroxide and split into several portions and allowed to finish cooling. Once cooled to room temperature, one portion of the body lotion was left unpreserved and the remaining portions were preserved with one or more substances selected from aseptilase, phenoxyethanol, caprylyl glycol, sodium benzoate, and EDTA. All samples were inoculated with E. coli (10^6 CFU/mL) and C. albicans (10^5 CFU/mL) and plated after 2 and 7 days.

Data set [1] can be described thus: Thermal stability at 55 °C, specific activity by colorimetric hydroxamate assay. The format is biochemical. On the procedure:
Tgase activity was measured herein using a colorimetric hydroxamate activity assay (Folk and Cole (1965) J Biol Chemistry 240 (7): 2951-2960). Briefly, the hydroxamate assay uses N-benzyloxycarbonyl-L-glutaminyl-glycine (ZQG) as a low molecular weight amine acceptor substrate and hydroxylamine as an amine donor. In the presence of catalytically active Tgase, the hydroxylamine is incorporated to form Z-glutamylhydroxamate-glycine, which develops a colored complex with iron (III), detectable at 525 nm after incubation at 37° C. for 5-200 minutes. The calibration was performed using L-glutamic acid gamma-monohydroxamate (Millipore® Sigma®) as a standard. One unit of Tgase was defined as the amount of enzyme that catalyzes formation of 1 μmol of the peptide derivative of gamma-glutamylhydroxylamine per minute. Activity of Tgase variants is depicted in Tables 2-4.
A commercially available wild-type Tgase (Ajinimoto®, Activa® TI formulation) formulated at 0.75-1.0% enzyme in maltodextrin was purchased from Amazon.com and dissolved in water at 20% w/v. The concentration of the mature Tgase in the solution was confirmed by high-performance liquid chromatography (HPLC) and the sample was further diluted to 0.1 g/L of enzyme. Following dilution, the enzyme was subjected to the hydroxamate assay as described in Example 4 to determine specific activity. The specific activity of the commercial wild-type Tgase compared to Tgase variant A3 (SEQ ID NO: 4), further comprising an N-terminal methionine, is shown in FIG. 1.
The thermal stability of Tgase variant A3 (SEQ ID NO: 4) compared to the commercial wild-type Tgase was evaluated by incubating the samples at 55° C. and testing the enzyme concentration and activity at various timepoints. Six timepoints were tested: 0, 30, 60, 120, 240, and 480 minutes.
The enzyme concentration was measured by HPLC. The samples were diluted 10-fold in 50 mM phosphate pH 7.4, 100 mM NaCl. The samples were tested by reverse phase using a Zorbax SB300-C8 column with 0.1% trifluoroacetic acid in water (MPA) and 0.08% trifluoroacetic acid in acetonitrile (MPB).
The activity was determined using the colorimetric activity assay described in Example 4A. The specific activity (U/mg) of the samples was calculated using the concentration of each sample as determined per Example 4D (results shown in Table 10).

B1: A3: Tgase variant S2P Q50S Q74A K91H Q124L K151R K152R N282M G283A relative to SEQ ID NO: 2 (protein, UniProt P81453 77-407, looked up, variant S2P Q50S Q74A K91H Q124L K151R K152R N282M G283A)
Protein-glutamine …: DPDDRVTPPAEPLDRMPDPYRPSYGRAETVVNNYIRKWQQVYSHRDGRKSQMTEEQREWLSYGCVGVTWVNSGAYPTNRLAFASFDEDRFHNELKNGRPRSGETRAEFEGRVAKESFDEEKGFLRAREVASVMNRALENAHDESAYLDNLRRELANGNDALRNEDARSPFYSALRNTPSFKERNGGNHDPSRMKAVIYSKHFWSGQDRSSSADKRKYGDPDAFRPAPGTGLVDMSRDRNIPRSPTSPGEGFVNFDYGWFGAQTEADADKTVWTHGNHYHAPMASLGAMHVYESKFRNWSEGYSDFDRGAYVITFIPKSWNTAPDKVKQGWP
With B1, the “Fluorescence/[Enzyme]” value with collagen (FITC-Cadaverine, 37 °C) is on record as 20.3 RFU/ppm; in the data set on collagen (FITC-Cadaverine, 50 °C), 182.2 RFU/ppm; in the data set with collagen (FITC-Gelatin, 37 °C), 8.4 RFU/ppm; with collagen (FITC-Gelatin, 50 °C) it was 36.9 RFU/ppm. Besides, the “Preservative efficacy against C. albicans, log reduction” value is reported as −1.08 log reduction in CFU/mL in the data set on C. albicans (day 2, aseptilase 0.01% alone) and −1.19 log reduction in CFU/mL with C. albicans (day 7, aseptilase 0.01% alone). For the same molecule, the Specific activity in data set [1] (timepoint 0 min) is given as 46.0 U/mg; in data set [1] (timepoint 30 min), 44.4 U/mg; in data set [1] (timepoint 60 min), 43.3 U/mg; in data set [1] (timepoint 120 min), 40.5 U/mg; in data set [1] (timepoint 240 min), 38.9 U/mg; in data set [1] (timepoint 480 min), 32.1 U/mg. In data set [1] (up to 480 min, compared to wild-type Tgase, HPLC), the “portion remaining soluble during the heat treatment” value was “greater portion”.
